# Test results taken from publication PMC4081072, “Structure and semi-sequence-specific RNA binding of Nrd1”.
# T1: Nrd1 307-491 WT (Saccharomyces cerevisiae, UniProt P53617 307-491)
# T1 sequence: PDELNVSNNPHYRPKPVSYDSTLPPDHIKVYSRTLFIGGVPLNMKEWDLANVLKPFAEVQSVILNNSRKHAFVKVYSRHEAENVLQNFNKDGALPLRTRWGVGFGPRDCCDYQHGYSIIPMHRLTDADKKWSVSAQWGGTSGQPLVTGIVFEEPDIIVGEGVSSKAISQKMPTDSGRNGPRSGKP
# T2: Nrd1 307-491 K435D (Saccharomyces cerevisiae, UniProt P53617 307-491, K435D)
# T2 sequence: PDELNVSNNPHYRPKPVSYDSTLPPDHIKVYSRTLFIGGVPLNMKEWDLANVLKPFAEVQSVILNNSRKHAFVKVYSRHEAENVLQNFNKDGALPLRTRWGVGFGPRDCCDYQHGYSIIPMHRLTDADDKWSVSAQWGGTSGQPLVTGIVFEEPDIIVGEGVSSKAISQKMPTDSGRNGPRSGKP
# T3: Nrd1 307-491 H376A (Saccharomyces cerevisiae, UniProt P53617 307-491, H376A)
# T3 sequence: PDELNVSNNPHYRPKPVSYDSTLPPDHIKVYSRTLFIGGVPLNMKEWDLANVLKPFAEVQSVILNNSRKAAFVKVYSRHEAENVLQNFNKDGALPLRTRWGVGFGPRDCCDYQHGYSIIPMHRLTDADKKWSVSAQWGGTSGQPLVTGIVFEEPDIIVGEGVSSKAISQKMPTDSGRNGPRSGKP
# T4: Nrd1 307-491 F378A (Saccharomyces cerevisiae, UniProt P53617 307-491, F378A)
# T4 sequence: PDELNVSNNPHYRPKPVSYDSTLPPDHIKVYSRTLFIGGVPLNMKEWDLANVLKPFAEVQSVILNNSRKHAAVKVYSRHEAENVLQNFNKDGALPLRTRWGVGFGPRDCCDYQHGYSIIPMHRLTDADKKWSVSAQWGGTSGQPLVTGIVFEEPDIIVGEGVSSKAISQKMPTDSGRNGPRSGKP
# T5: Nrd1 307-491 F342A (Saccharomyces cerevisiae, UniProt P53617 307-491, F342A)
# T5 sequence: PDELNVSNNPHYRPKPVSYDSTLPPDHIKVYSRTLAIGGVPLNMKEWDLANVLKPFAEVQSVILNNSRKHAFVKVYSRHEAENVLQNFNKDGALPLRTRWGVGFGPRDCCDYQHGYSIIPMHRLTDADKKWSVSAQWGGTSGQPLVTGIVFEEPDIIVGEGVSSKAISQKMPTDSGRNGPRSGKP
# T6: Nrd1 307-491 D417A (Saccharomyces cerevisiae, UniProt P53617 307-491, D417A)
# T6 sequence: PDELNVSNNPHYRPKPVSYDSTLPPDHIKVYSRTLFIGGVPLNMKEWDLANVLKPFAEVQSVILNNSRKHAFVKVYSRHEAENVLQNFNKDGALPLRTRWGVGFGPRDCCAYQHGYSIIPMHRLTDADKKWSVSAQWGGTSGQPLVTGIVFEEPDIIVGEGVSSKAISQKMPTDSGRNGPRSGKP
# T7: Nrd1 307-491 R429D (Saccharomyces cerevisiae, UniProt P53617 307-491, R429D)
# T7 sequence: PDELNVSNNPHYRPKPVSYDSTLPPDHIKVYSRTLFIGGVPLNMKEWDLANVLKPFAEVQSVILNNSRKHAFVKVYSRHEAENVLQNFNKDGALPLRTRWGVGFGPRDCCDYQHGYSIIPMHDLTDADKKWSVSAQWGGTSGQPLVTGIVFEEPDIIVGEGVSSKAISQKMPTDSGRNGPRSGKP
# T8: Nrd1 307-491 G409A (Saccharomyces cerevisiae, UniProt P53617 307-491, G409A)
# T8 sequence: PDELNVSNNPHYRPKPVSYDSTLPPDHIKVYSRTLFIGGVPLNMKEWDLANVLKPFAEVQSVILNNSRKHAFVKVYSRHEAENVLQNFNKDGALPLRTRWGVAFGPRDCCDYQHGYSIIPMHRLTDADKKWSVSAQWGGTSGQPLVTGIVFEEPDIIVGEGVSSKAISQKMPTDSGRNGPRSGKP
# T9: Nrd1 307-491 T431R (Saccharomyces cerevisiae, UniProt P53617 307-491, T431R)
# T9 sequence: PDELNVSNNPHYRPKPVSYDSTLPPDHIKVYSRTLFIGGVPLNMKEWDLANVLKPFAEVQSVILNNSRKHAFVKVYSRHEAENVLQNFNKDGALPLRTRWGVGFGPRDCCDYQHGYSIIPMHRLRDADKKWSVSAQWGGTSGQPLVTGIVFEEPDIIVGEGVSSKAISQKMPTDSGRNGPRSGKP
# Key:
# Nrd1 307-491 WT [1] = biological target: T1, Nrd1 307-491 WT; experiment: fluorescence anisotropy; FA: 10 nM RNA, 50 mM sodium phosphate pH 8, 150 mM NaCl, 10 mM beta-mercaptoethanol, 20 C (protein stock in 300 mM NaCl); NMR: same buffer with 300 mM NaCl, 20; settings: protein: recombinant, tags: C-terminal His6
# Nrd1 307-491 K435D = biological target: T2, Nrd1 307-491 K435D; experiment: as above; settings: protein: recombinant; tags: C-terminal His6; label: 5' fluorescein or TAMRA (FA); unlabeled (NMR)
# Nrd1 307-491 H376A = biological target: T3, Nrd1 307-491 H376A; experiment: as above; settings: protein: recombinant; tags: C-terminal His6; label: 5' fluorescein or TAMRA (FA); unlabeled (NMR)
# Nrd1 307-491 F378A = biological target: T4, Nrd1 307-491 F378A; experiment: as above; settings: protein: recombinant; tags: C-terminal His6; label: 5' fluorescein or TAMRA (FA); unlabeled (NMR)
# Nrd1 307-491 F342A = biological target: T5, Nrd1 307-491 F342A; experiment: as above; settings: protein: recombinant; tags: C-terminal His6; label: 5' fluorescein or TAMRA (FA); unlabeled (NMR)
# Nrd1 307-491 D417A = biological target: T6, Nrd1 307-491 D417A; experiment: as above; settings: protein: recombinant; tags: C-terminal His6; label: 5' fluorescein or TAMRA (FA); unlabeled (NMR)
# Nrd1 307-491 R429D = biological target: T7, Nrd1 307-491 R429D; experiment: as above; settings: protein: recombinant; tags: C-terminal His6; label: 5' fluorescein or TAMRA (FA); unlabeled (NMR)
# Nrd1 307-491 G409A = biological target: T8, Nrd1 307-491 G409A; experiment: as above; settings: protein: recombinant; tags: C-terminal His6; label: 5' fluorescein or TAMRA (FA); unlabeled (NMR)
# Nrd1 307-491 T431R = biological target: T9, Nrd1 307-491 T431R; experiment: as above; settings: protein: recombinant; tags: C-terminal His6; label: 5' fluorescein or TAMRA (FA); unlabeled (NMR)
# Nrd1 307-491 WT [2] = biological target: T1, Nrd1 307-491 WT; experiment: fluorescence anisotropy; prolonged incubation between aliquots; FA: 10 nM RNA, 50 mM sodium phosphate pH 8, 150 mM NaCl, 10 mM beta-mercaptoethanol, 20 C (protein stock in 300 mM NaCl); NMR: same buffer with 300 mM NaCl, 20; settings: protein: recombinant; tags: C-terminal His6; label: 5' fluorescein or TAMRA (FA); unlabeled (NMR); may form quadruplex when free
Binder,Kd (Nrd1 307-491 WT [1]; label: 5' fluorescein or TAMRA) [µM],further results
UGGA (ssRNA),94.1 ± 3.9,–
GUUGUUG (ssRNA),13 ± 0.7,–
UGGUGGU (ssRNA),6.8 ± 0.6,–
GCGGGCG (ssRNA),13.2 ± 0.5,–
GCGGGGC (ssRNA),–,"Kd (Nrd1 307-491 K435D): 50.5 ± 10.8 µM; Kd (Nrd1 307-491 H376A): 37.5 ± 3.7 µM; Kd (Nrd1 307-491 F378A): 73.4 ± 10.7 µM; Kd (Nrd1 307-491 WT [1]; label: 5' fluorescein or TAMRA (FA), unlabeled (NMR)): 9.8 ± 0.3 µM; Kd (Nrd1 307-491 F342A): 29.5 ± 4 µM; Kd (Nrd1 307-491 D417A): 31.7 ± 6 µM; Kd (Nrd1 307-491 R429D): 60.1 ± 3.5 µM; Kd (Nrd1 307-491 G409A): 30.3 ± 3.9 µM; Kd (Nrd1 307-491 T431R): 48 ± 2.9 µM"
CAGCGUC (ssRNA),37.7 ± 1.1,–
CACACAC (ssRNA),108 ± 4,–
GUAAUGAAUUAAGUCUUGAUAUAUAA (ssRNA) [win78wt],1.5 ± 0.1,–
AGCGUGAAUUAAGUCUUGAUAUAUAA (ssRNA) [win78dNrd1],2.5 ± 0.2,–
AGCGUGAAUUAAGAGCGUAUAUAUAA (ssRNA) [win78dNrd1dNab3],7.9 ± 0.3,–
AGCGUGAAUUAAGUCUUGCACACACA (ssRNA) [win78dNrd1dAUrichCA],5.4 ± 0.2,–
CCCCUGAAUUAAGCCCCCCCCCCCCC (ssRNA) [win78polyC],7.2 ± 0.5,–
UCUUG (ssRNA),41.1 ± 2.7,–
GGGGGGG (ssRNA) [G7],–,Kd (Nrd1 307-491 WT [2]): 5.7 ± 1.2 µM
UUUUUUU (ssRNA) [U7],69.8 ± 3.2,–
AAAAAAA (ssRNA) [A7],32.1 ± 0.9,–
AUAUAUA (ssRNA),11.3 ± 0.5,–
AUUAUUA (ssRNA),14.8 ± 0.4,–
